Test results published in US20060263345A1, “Butyrylcholinesterase variant polypeptides with increased catalytic efficiency and methods of use” (priority 2003, published 2006).

Assay: microtiter isotope tracer [3H]-cocaine hydrolysis assay of immobilized butyrylcholinesterase variants
Assay type: biochemical
Conditions: for cocaine hydrolysis activity compared to butyrylcholinesterase (in words): compared to human butyrylcholinesterase; for increase in cocaine hydrolysis activity relative to butyrylcholinesterase: compared to human butyrylcholinesterase SEQ ID NO: 44, approximate values; for Relative Activity of butyrylcholinesterase variants (WT = 1) with enhanced cocaine hydrolase activity: relative to wild-type = 1, catalytic efficiency (Vmax/Km), [3H]-cocaine microtiter assay
Excerpt: At the conclusion of the isotope tracer assay, an aliquot of the reaction mix is acidified in order to take advantage of the solubility difference between the product and the substrate at pH 3.0. […] Prospect, Ill.) while [3H]-cocaine is not.
The supernatants isolated from each of the butyrylcholinesterase variant library clones contains variable butyrylcholinesterase enzyme concentrations.
At least three approaches are used to either increase the assay sensitivity or the assay signal.
Km values for (−)-cocaine are determined at 37° C. Vmax and Km values are calculated using Sigma Plot (Jandel Scientific, San Rafael, Calif.). The number of active sites of butyrylcholinesterase is determined by the method of residual activity using echothiopate iodide or diisopropyl fluorophosphates as titrants, as described previously by Masson et al., Biochemistry 36: 2266-2277 (1997). […] Purified human butyrylcholinesterase is used as the standard for the ELISA quantitation assay. The catalytic rate constant, kcat, is calculated by dividing Vmax by the concentration of active sites.

| Molecule | cocaine hydrolysis activity compared to butyrylcholinesterase (in words) | increase in cocaine hydrolysis activity relative to butyrylcholinesterase | increase in cocaine hydrolysis activity relative to butyrylcholinesterase (listed as SEQ ID NO: 8) | Relative Activity of butyrylcholinesterase variants (WT = 1) with enhanced cocaine hydrolase activity |
| --- | --- | --- | --- | --- |
| A328W/Y332S (protein, Butyrylcholinesterase variant) EDDIIIATKNGKVRGMNLTVFGGTVTAFLGIPYAQPPLGRLRFKKPQSLTKWSDIWNATKYANSCCQNIDQSFPGFHGSEMWNPNTDLSEDCLYLNVWIPAPKPKNATVLIWIYGGGFQTGTSSLHVYDGKFLARVERVIVVSMNYRVGALGFLALPGNPEAPGNMGLFDQQLALQWVQKNIAAFGGNPKSVTLFGESAGAASVSLHLLSPGSHSLFTRAILQSGSFNAPWAVTSLYEARNRTLNLAKLTGCSRENETEIIKCLRNKDPQEILLNEAFVVPYGTPLSVNFGPTVDGDFLTDMPDILLELGQFKKTQILVGVNKDEGTWFLVSGAPGFSKDNNSIITRKEFQEGLKIFFPGVSEFGKESILFHYTDWVDDQRPENYREALGDVVGDYNFICPALEFTKKFSEWGNNAFFYYFEHRSSKLPWPEWMGVMHGYEIEFVFGLPLERRDNYTKAEEILSRSIVKRWANFAKYGNPNETQNNSTSWPVFKSTEQKYLTLNTESTRIMTKLRAQQCRFWTSFFPKVLEMTGNIDEAEWEWKAGFHRWNNYMMDWKNQFNDYTSKKESCVGL | enhanced cocaine hydrolase activity | seven | eight | 8 |
| A328W/S287G/F227A/A199S (protein, Butyrylcholinesterase variant) EDDIIIATKNGKVRGMNLTVFGGTVTAFLGIPYAQPPLGRLRFKKPQSLTKWSDIWNATKYANSCCQNIDQSFPGFHGSEMWNPNTDLSEDCLYLNVWIPAPKPKNATVLIWIYGGGFQTGTSSLHVYDGKFLARVERVIVVSMNYRVGALGFLALPGNPEAPGNMGLFDQQLALQWVQKNIAAFGGNPKSVTLFGESSGAASVSLHLLSPGSHSLFTRAILQSGSANAPWAVTSLYEARNRTLNLAKLTGCSRENETEIIKCLRNKDPQEILLNEAFVVPYGTPLGVNFGPTVDGDFLTDMPDILLELGQFKKTQILVGVNKDEGTWFLVYGAPGFSKDNNSIITRKEFQEGLKIFFPGVSEFGKESILFHYTDWVDDQRPENYREALGDVVGDYNFICPALEFTKKFSEWGNNAFFYYFEHRSSKLPWPEWMGVMHGYEIEFVFGLPLERRDNYTKAEEILSRSIVKRWANFAKYGNPNETQNNSTSWPVFKSTEQKYLTLNTESTRIMTKLRAQQCRFWTSFFPKVLEMTGNIDEAEWEWKAGFHRWNNYMMDWKNQFNDYTSKKESCVGL | enhanced cocaine hydrolase activity | one-hundred | – | 100 |
| A328W/Y332M/S287G/F227A/A199S (protein, Butyrylcholinesterase variant) EDDIIIATKNGKVRGMNLTVFGGTVTAFLGIPYAQPPLGRLRFKKPQSLTKWSDIWNATKYANSCCQNIDQSFPGFHGSEMWNPNTDLSEDCLYLNVWIPAPKPKNATVLIWIYGGGFQTGTSSLHVYDGKFLARVERVIVVSMNYRVGALGFLALPGNPEAPGNMGLFDQQLALQWVQKNIAAFGGNPKSVTLFGESSGAASVSLHLLSPGSHSLFTRAILQSGSANAPWAVTSLYEARNRTLNLAKLTGCSRENETEIIKCLRNKDPQEILLNEAFVVPYGTPLGVNFGPTVDGDFLTDMPDILLELGQFKKTQILVGVNKDEGTWFLVMGAPGFSKDNNSIITRKEFQEGLKIFFPGVSEFGKESILFHYTDWVDDQRPENYREALGDVVGDYNFICPALEFTKKFSEWGNNAFFYYFEHRSSKLPWPEWMGVMHGYEIEFVFGLPLERRDNYTKAEEILSRSIVKRWANFAKYGNPNETQNNSTSWPVFKSTEQKYLTLNTESTRIMTKLRAQQCRFWTSFFPKVLEMTGNIDEAEWEWKAGFHRWNNYMMDWKNQFNDYTSKKESCVGL | enhanced cocaine hydrolase activity | one-hundred | – | 100 |
